B1: FUT8 (parent)
chain: YAHQPRTADEIPMEPGDIIGVAGN
B2: DLC1 (parent)
chain: AIQGISEKEKAEIEAKEACDWLRA

Variants of: B1
Experiment: protein stability index of a GFP-peptide fusion (GPS, HEK-293T) (PSI 1-6); higher = more stable
Conditions: c terminus: a fixed tail appended
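Further: lentivirally expressed fusions sorted by FACS into six bins by GFP to DsRed ratio, PSI derived from sequencing read proportions per bin multiplied by bin number.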

Protein stability index of substitutions, site by site:
A22: Y 3.27; Q 4.31; R 4; P 4.06; S 3.92; N 4.38; V 3.26; W 2.41; T 3.87
G23: F 2.99; N 3.63; H 3.99; K 4.19; Y 3.13; M 3.7; D 4.24; S 3.77; A 3.96; E 4.83; L 3.27; P 3.73; I 2.87; R 3.31; T 3.87; Q 4.11; C 3.12; W 2.67; V 3.58
N24: C 3.57; K 3.62; V 3.61; D 4.71; F 2.46; Y 3.21; H 3.39; S 4.17; T 4.13; A 3.95; R 3.5; M 3.21; L 2.77; Q 4.03; G 3.43; I 2.93; P 3.18; E 4.59; W 2.66

Variants of: B2
Experiment: as above
Conditions: c terminus: a fixed tail appended

Protein stability index: each site, then its substitutions
A1: Q 4.23; K 4.32; D 4.96; T 4.6; C 4.09; G 4.58; V 4.18; F 3.18; H 4.21; W 3.23; M 4.09; R 4.55; N 5.11; S 4.67; L 4.21; Y 3.71; I 3.94; P 4.47; E 4.74
A15: N 4.24; L 4; T 3.76; H 4.33; V 4.53; R 4.18; S 4.81; D 4.4; F 3.57; G 3.97; E 4.81; C 4.29; W 3.65; P 4.51; I 3.91; Q 4.52; K 4.61; M 4.24; Y 4.33
K8: A 3.75; H 4.4; E 5.05; W 3.68; C 4; R 4.43; M 4.49; P 4.72; T 5.01; Q 4.3; N 3.88; G 4.6; I 4.5; S 3.98; D 4.61; Y 3.69; L 3.85; F 3.97; V 4.2
I13: N 4.66; P 5.13; D 5.06; A 4.7; W 4.26; V 4.64; T 4.16; Q 4.44; R 4.53; K 4.89; S 4.85; G 5.08; M 4.78; H 4.88; F 3.94; Y 4.46; C 5.09; E 5.08; L 4.21
A11: L 4.23; R 4.23; W 3.53; S 4.79; T 4.67; F 3.64; D 5.18; N 4.5; I 3.67; P 4.51; Y 4.16; C 4.32; M 3.99; H 4.34; E 4.87; K 4.47; Q 4.57; V 4.61; G 4.56
E14: L 3.87; R 3.61; F 3.78; A 4.1; Y 3.91; W 2.86; S 3.93; V 3.24; T 4.34; D 4.58; K 3.5; Q 4.36; G 3.73; M 3.59; P 4.12; C 4.07; N 3.54; I 3.81; H 3.74
E7: D 4.39; M 3.67; Q 4.06; L 3.06; I 3.63; T 4.14; F 3.44; G 4.22; K 4.3; R 3.62; H 3.86; A 4.25; S 4.15; P 3.71; C 3.61; Y 3.63; W 3.58; V 3.88; N 3.72
K16: C 4.14; A 4.35
S6: C 4.3; Y 3.48; N 4.54; R 4.46; F 3.86; L 3.56; H 4.28; T 4.73; M 4.04; P 4.88; A 4.31; D 4.84; G 4.39; V 4.14; K 3.96; Q 4.74; W 3.71; I 3.58; E 4.99
K10: C 4.54; F 3.71; T 4.68; H 4.38; N 4.71; D 4.47; W 3.73; R 4.04; L 4.08; Y 4.11; E 4; M 4.67; I 3.8; P 4.18; A 4.67; V 3.9; Q 4.57; S 4.61; G 4.17
E9: Y 3.48; V 3.88; G 4.23; T 4.12; W 3.63; C 3.76; R 3.08; F 2.69; Q 4.14; K 3.97; P 4.08; N 4.5; D 4.2; A 4.19; S 4.22; M 3.22; H 4.71; I 3.29; L 2.97
G4: I 3.15; C 4.32; A 4.47; W 3.8; L 3.27; Q 4.46; F 4.24; N 3.67; K 4.26; M 3.92; V 3.9; R 3.08; P 4.33; S 4.45; Y 3.73; H 4.36; T 4.2; E 4.53; D 4.79
E12: Q 4.18; C 3.85; A 3.89; M 3.98; P 4.63; H 3.46; L 3.72; T 4.32; I 4.02; W 3.26; Y 3.53; N 4.5; K 3.81; R 3.86; V 4.17; F 3.82; G 4.42; S 4.02; D 4.43
I2: T 5; V 4.19; C 4.88; P 4.96; F 4.81; S 4.99; K 4.56; H 4.9; M 4.94; Y 4.24; G 4.57; R 4.78; A 4.94; W 4.37; Q 4.79; D 4.99; E 5.26; L 4.91; N 5.13
Q3: I 3.88; A 4.83; S 4.56; P 4.19; C 4.28; T 4.81; K 4.27; M 4.18; L 3.54; F 3.61; E 5.07; W 3.58; G 4.33; H 4.68; D 5.2; V 4.34; N 3.77; Y 3.47; R 4.43
I5: R 4.57; Q 4.97; G 4.9; Y 4.45; K 4.71; P 4.46; N 4.79; M 5.16; D 5.19; A 4.77; E 4.35; L 4.36; W 4.47; F 4.18; V 4.54; C 4.66; S 4.8; T 4.87; H 4.94

— the supplement of paper PMC10567573
